Source: doi:10.1101/2020.07.01.179531v1

Substrate: O=P(O)(O)OC[C@@H](O)[C@@H](O)[C@H](O)[C@H](O)CO
Experiment: purified protein
Details: 3 mM DTT added; other conditions presumably as for EsM1Pase1short

B1: EsM1Pase2 (Ectocarpus siliculosus) (protein)
chain: MEKAKAFDKMSILFDFDGTIGDTETPAMEVAFWELAPYLPDTTPDKLDGLMPEFVRDNAGKAFEFMVEKVDEDRKAAGLSTISEAFAAKSEPKEMLDAVDPHRKKFGLKTFAELRAPDGGEKENLLIQQKTETVDALSKIAQPCNGVPEVLAALTAAGVAFCISTTSPKPRVPASITACKLDEYFPADKVHSGESDFDPPRFKPNPSVYLKAAETEGKEPANCIAVEDSGSGVGSASNAGVGLTVGYVGASHIPDYKKDTHAEMLMSGGRAENGKGAEIVISDMTDLPKVIEFFAGEKIAGKSAPFDFPEELISSLKQPVWVHSTKA
  Km: 1300 µM
  kcat: 0.05 s⁻¹
